Where two headings read alike, the source gives them in different places.
Experiments:
[1] = biological target: T1, mouse PD-L1 on CHO cells that stably expressed mouse PD-L1 (mouse, UniProt Q9EP73 19-290); assay: flow cytometry competition: biotin-labelled mouse PD-1-Fc at a subsaturated concentration on CHO cells stably expressing mouse PD-L1, antibody titrated, streptavidin R-PE detection
T1 construct: whole, on cells; also called CHO cells expressing mouse PD-L1
Experimental: (§1) After cell washing, Streptavidin R-PE Conjugate (life technology, SA10041) was added and incubated (4° C., 30 min). After cell washing, the fluorescence intensity was detected by a flow cytometer (Intellicyt iQue Screener).

[2] = biological target: T2, recombinant human PD-L1-His protein (Origincell Therapeutics Co., Ltd.) (human, UniProt Q9NZQ7 19-238, limits assumed); assay: BLI (Octet RED384), antibody on AHC sensor, PD-L1-His in solution
T2 construct: not shown: His tag
Experimental: (§2) The antigen-antibody binding kinetics were analyzed by the biofilm interference (BLI) technology, using a molecular interaction analyzer (Octet RED384, purchased from Pall ForteBio Analytics Co., Ltd.) and using a PBS buffer containing 0.1% BSA and 0.02% Tween 20. […] The AHC sensor was regenerated by glycine pulses and then reused. The obtained results would be analyzed by Octet Data Analysis 9.0 software (Pall ForteBio Analytics Co., Ltd.) to give the KD, Kₒₙ (1/Ms) and Koff (1/s).

[3] = biological target: T3, human PD-L1 on cells (CHO cells that stably expressed human PD-L1; MDA-MB-231 cells) (human, UniProt Q9NZQ7 19-290); assay: flow cytometry on MDA-MB-231 cells (human PD-L1), anti-human IgG-Fc DyLight 650 detection
T3 construct: whole, on cells; Stably expressed on CHO cells; also called CHO cells expressing human PD-L1
Experimental: Human breast cell strain MDA-MB-231 (Shanghai Chinese Academy of Sciences Cell Library) highly expresses the human PD-L1 molecule. […] After cell washing, Goat F(ab′)₂ Anti-Human IgG-Fc (DyLight 650) (ab98593, abcam) was added and incubated at 4° C. for 30 min. After cell washing, the fluorescence intensity was detected by a flow cytometer (Intellicyt iQue Screener).

[4] = biological target: T4, recombinant human CD137-His protein (Origincell Therapeutics Co., Ltd.) (human, UniProt Q07011 24-186, limits assumed); assay: BLI (Octet RED384), antibody on AHC sensor, CD137-His in solution
T4 construct: also called Human 4-1BB-His; not shown: His tag
Experimental: as §2

[5] = biological target: T3, human PD-L1 on cells (CHO cells that …); assay: flow cytometry competition: biotin-labelled human PD-1-Fc at a subsaturated concentration on CHO cells stably expressing human PD-L1, antibody titrated, streptavidin R-PE detection
Experimental: as §1

[6] = biological target: T5, recombinant mouse PD-L1-Fc protein (M5251, ACROBiosystems Inc.) (mouse, UniProt Q9EP73 19-238); assay: BLI (Octet RED384), biotinylated antigen on SA sensor, antibody in solution
T5 construct: Bought; Labeled with biotin for the BLI assays; unlabeled in the phage ELISA; also called Mouse PD-L1-Fc-Biotin; not shown: Fc part
Experimental: as §2, with “The recombinant human PD-L1-Fc protein and the recombinant mouse PD-L1-Fc were labeled with biotin (EZ-Link Sulfo-NHS-LC-Biotin, Pierce, 21327). The” for “The”, “The” for “The AHC sensor was regenerated by glycine pulses and then reused. The”

[7] = biological target: T6, recombinant human PD-L1-Fc protein (Origincell Therapeutics Co., Ltd.) (human, UniProt Q9NZQ7 19-238, limits assumed); assay: as above
T6 construct: Labeled with biotin (EZ-Link Sulfo-NHS-LC-Biotin) for the BLI assays; unlabeled in the phage ELISA; also called Human PD-L1-Fc-Biotin; not shown: Fc part
Experimental: as §2, with “The recombinant human PD-L1-Fc protein and the recombinant mouse PD-L1-Fc were labeled with biotin (EZ-Link Sulfo-NHS-LC-Biotin, Pierce, 21327). The” for “The”, “The” for “The AHC sensor was regenerated by glycine pulses and then reused. The”

[8] = biological target: T3, human PD-L1 on cells (CHO cells that …); assay: flow cytometry on CHO cells stably expressing human PD-L1, anti-human IgG-Fc DyLight 650 detection
Experimental: The mixture was mixed well and incubated at 4° C. for 1 hr. After cell washing, Goat F(ab)₂ Anti-Human IgG-Fc (DyLight 650) (ab98593, Abcam) was added and incubated at 4° C. for 30 min. After cell washing, the fluorescence intensity was detected by a flow cytometer (Intellicyt iQue Screener).

[9] = biological target: T1, mouse PD-L1 on CHO cells that stably …; assay: flow cytometry competition: biotin-labelled mouse PD-1-Fc at a subsaturated concentration on CHO cells stably expressing mouse PD-L1, antibody titrated, streptavidin R-PE detection; remark: listed apart in the source
Experimental: as §1

[10] = biological target: T3, human PD-L1 on cells (CHO cells that …); assay: flow cytometry competition: biotin-labelled human PD-1-Fc at a subsaturated concentration on CHO cells stably expressing human PD-L1, antibody titrated, streptavidin R-PE detection; remark: listed apart in the source
Experimental: as §1

[11] = biological target: T1, mouse PD-L1 on CHO cells that stably …; assay: flow cytometry on CHO cells stably expressing mouse PD-L1, anti-human IgG-Fc DyLight 650 detection
Experimental: The mixture was mixed well and incubated at 4° C. for 1 hr. After cell washing, Goat F(ab′)₂ Anti-Human IgG-Fc (DyLight 650) (ab98593) was added and incubated at 4° C. for 30 min. After cell washing, the fluorescence intensity was detected by a flow cytometer (Intellicyt iQue Screener).

[12] = biological target: T2, recombinant human PD-L1-His protein …; assay: BLI (Octet RED384), antibody on AHC sensor, PD-L1-His in solution; remark: listed apart in the source

T5 sequence (Q9EP73 19-238 limits assumed): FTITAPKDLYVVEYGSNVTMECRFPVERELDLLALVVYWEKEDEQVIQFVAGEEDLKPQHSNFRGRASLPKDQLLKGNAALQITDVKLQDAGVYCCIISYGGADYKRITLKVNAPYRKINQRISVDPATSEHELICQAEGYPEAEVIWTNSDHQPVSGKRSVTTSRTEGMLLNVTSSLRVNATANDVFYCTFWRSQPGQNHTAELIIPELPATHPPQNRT
T3 sequence (Q9NZQ7 19-290): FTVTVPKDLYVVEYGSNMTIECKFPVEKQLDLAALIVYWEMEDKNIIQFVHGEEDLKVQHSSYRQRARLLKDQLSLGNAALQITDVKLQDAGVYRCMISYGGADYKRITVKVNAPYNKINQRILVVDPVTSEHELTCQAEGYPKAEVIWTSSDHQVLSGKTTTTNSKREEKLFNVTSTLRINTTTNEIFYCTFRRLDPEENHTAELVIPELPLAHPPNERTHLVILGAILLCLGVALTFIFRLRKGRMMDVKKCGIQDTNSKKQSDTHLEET
T1 sequence (Q9EP73 19-290): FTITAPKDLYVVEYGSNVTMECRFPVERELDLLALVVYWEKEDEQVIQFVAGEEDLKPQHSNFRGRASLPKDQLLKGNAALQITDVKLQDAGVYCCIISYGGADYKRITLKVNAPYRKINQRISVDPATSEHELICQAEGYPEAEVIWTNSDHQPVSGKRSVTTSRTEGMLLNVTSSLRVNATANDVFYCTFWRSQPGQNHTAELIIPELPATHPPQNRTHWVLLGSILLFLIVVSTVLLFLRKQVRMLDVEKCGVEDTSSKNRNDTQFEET
T6 sequence (Q9NZQ7 19-238 limits assumed): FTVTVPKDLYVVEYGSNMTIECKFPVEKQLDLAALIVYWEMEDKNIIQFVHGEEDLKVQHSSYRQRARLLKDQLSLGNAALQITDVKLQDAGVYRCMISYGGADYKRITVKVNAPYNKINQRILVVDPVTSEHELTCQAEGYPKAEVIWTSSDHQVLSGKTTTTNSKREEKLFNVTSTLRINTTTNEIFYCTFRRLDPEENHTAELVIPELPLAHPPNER
T2 sequence (Q9NZQ7 19-238 limits assumed): as above

Binder | IC50 (read off the curve) [1] [nM] | Kd [2] [nM] | koff [2] [s⁻¹] | kon [2] [M⁻¹ s⁻¹] | EC50 (read off the curve) [3] [nM] | Kd [4] [nM] | koff [4] [s⁻¹] | kon [4] [M⁻¹ s⁻¹] | IC50 (read off the curve) [5] [nM] | EC50 (read off the curve) [8] [nM] | IC50 (read off the curve) [9] [nM] | IC50 (read off the curve) [10] [nM] | EC50 (read off the curve) [11] [nM] | Kd [12] [nM] | koff [12] [s⁻¹] | kon [12] [M⁻¹ s⁻¹] | further results
anti-PD-L1/CD137 bispecific antibody YN-051 (bispecific antibody, human IgG1, lambda, N297A, First polypeptide (built from the YN-035 heavy chain and the YN-006 heavy and light chain genes) and second polypeptide (= YN-035 light chain); SDS-PAGE: about 200 kDa non-reduced, about 75 and 25 kDa reduced) heavy: not shown light: QSALTQPASVSGSPGQSITISCTGTVSEVGGYNEVSWYQQHPGKAPKLMIYGNSNRPSGVSNRFSGSKSGNTASLTISGLQAEDEADYYCQSYDSSLSGTVFGGGTKLTVLGQPKAAPSVTLFPPSSEELQANKATLVCLISDFYPGAVTVAWKADSSPVKAGVETTTPSKQSNNKYAASSYLSLTPEQWKSHRSYSCQVTHEGSTVEKTVAPTECS | ~5 | 0.517 | 0.000275 | 532000 | ~1 | 1.64 | 0.000147 | 89900 | ~2 | – | – | – | – | – | – | – | –
anti-PD-L1/CD137 bispecific antibody YN-007 (bispecific antibody, First polypeptide (built from the YN-003 heavy chain and the YN-006 heavy and light chain genes) and second polypeptide (= YN-003 light chain); SDS-PAGE: about 200 kDa non-reduced, about 75 and 25 kDa reduced) heavy: not shown light: QSALTQPASVSGSPGQSITISCTGTSSDVGGYNYVSWYQQHPGKAPKLMIYGNSNRPSGVSNRFSGSKSGNTASLTISGLQAEDEADYYCQSYDSSLSGSVFGGGTKLTVLGQPKAAPSVTLFPPSSEELQANKATLVCLISDFYPGAVTVAWKADSSPVKAGVETTTPSKQSNNKYAASSYLSLTPEQWKSHRSYSCQVTHEGSTVEKTVAPTECS | – | – | – | – | – | – | – | – | – | – | – | – | – | – | – | – | Kd [6]: 1.34 nM; koff [6]: 0.00109 s⁻¹; kon [6]: 810000 M⁻¹ s⁻¹; Kd [7]: 0.525 nM; koff [7]: 0.000592 s⁻¹; kon [7]: 1.13e+06 M⁻¹ s⁻¹
PD-L1 antibody YN-039 (antibody, human IgG1, lambda, V domains shown, full-length IgG1,lambda) VH: QVQLVQSGAEVKKPGSSVKVSCKASRGPFSTYAISWVRQAPGQGLEWMGRIIPILGIANYAQKFQGRVTITADKSTSTAYMELSSLRSEDTAVYYCARTMGEYSYGNYDYWGQGTLVTVSS VL: QSALTQPASVSGSPGQSITISCTGTVSDVGGYNEVSWYQQHPGKAPKLMIYENSIRPSGVSHRFSGSKSGNTASLTISGLQAEDEADYYCQSYDSSLSGTVFGGGTKLTVLG | – | – | – | – | – | – | – | – | – | 3 to 4 | ~4 | ~3 | ~6 | 0.485 | 0.000173 | 356000 | –
PD-L1 antibody YN-037 (antibody, human IgG1, lambda, V domains shown, full-length IgG1,lambda) VH: QVQLVQSGAEVKKPGSSVKVSCKASRGPFSTYAISWVRQAPGQGLEWMGRIIPILGIANYAQKFQGRVTITADKSTSTAYMELSSLRSEDTAVYYCARTMGEYSYGNYDYWGQGTLVTVSS VL: QSALTQPASVSGSPGQSITISCTGTSSSVGGYREVSWYQQHPGKAPKLMIYENSIRPSGVSHRFSGSKSGNTASLTISGLQAEDEADYYCQSYDSSLSGTVFGGGTKLTVLG | – | – | – | – | – | – | – | – | – | 3 to 4 | ~4 | ~3 | ~6 | 0.382 | 0.000136 | 355000 | –

More lines, main results first:

IC50 (read off the curve) [1] [nM] | Kd [2] [nM] | koff [2] [s⁻¹] | kon [2] [M⁻¹ s⁻¹] | EC50 (read off the curve) [3] [nM] | Kd [4] [nM] | koff [4] [s⁻¹] | kon [4] [M⁻¹ s⁻¹] | IC50 (read off the curve) [5] [nM] | EC50 (read off the curve) [8] [nM] | IC50 (read off the curve) [9] [nM] | IC50 (read off the curve) [10] [nM] | EC50 (read off the curve) [11] [nM] | Kd [12] [nM] | koff [12] [s⁻¹] | kon [12] [M⁻¹ s⁻¹] | Binder | further results
~5 | 0.572 | 0.000257 | 448000 | ~2 | 2.08 | 0.000174 | 83700 | ~3 | – | – | – | – | – | – | – | anti-PD-L1/CD137 bispecific antibody YN-052 (bispecific antibody, human IgG1, lambda, N297A, First polypeptide (built from the YN-036 heavy chain and the YN-006 heavy and light chain genes) and second polypeptide (= YN-036 light chain); SDS-PAGE: about 200 kDa non-reduced, about 75 and 25 kDa reduced) heavy: not shown light: QSALTQPASVSGSPGQSITISCTGTVSEVGGYNEVSWYQQHPGKAPKLMIYGNSNRPSGVSNRFSGSKSGNTASLTISGLQAEDEADYYCQSYDSSLSGTVFGGGTKLTVLGQPKAAPSVTLFPPSSEELQANKATLVCLISDFYPGAVTVAWKADSSPVKAGVETTTPSKQSNNKYAASSYLSLTPEQWKSHRSYSCQVTHEGSTVEKTVAPTECS | –
– | – | – | – | – | – | – | – | – | 3 to 4 | ~4 | ~3 | ~6 | 0.447 | 0.000156 | 350000 | PD-L1 antibody YN-038 (antibody, human IgG1, lambda, V domains shown, full-length IgG1,lambda) VH: QVQLVQSGAEVKKPGSSVKVSCKASRGPFSTYAISWVRQAPGQGLEWMGRIIPILGIANYAQKFQGRVTITADKSTSTAYMELSSLRSEDTAVYYCARTMGEYSYGNYDYWGQGTLVTVSS VL: QSALTQPASVSGSPGQSITISCTGTRSDVGGYNEVSWYQQHPGKAPKLMIYENSIRPSGVSHRFSGSKSGNTASLTISGLQAEDEADYYCQSYDSSLSGTVFGGGTKLTVLG | –

Source: patent US20210261677A1 (ORICELL THERAPEUTICS, published 2021)
